We go through one molecule from patent US20200016201A1, “CHIMERIC ANTIGEN RECEPTORS AND COMPOSITIONS AND METHODS OF USE THEREOF” (published 2020).

The target in the assay is Lym-1 antigen (HLA-Dr10) on Raji cells (human). The experiment in a line: avidity constant, Scatchard plot analysis on the target tumor cell line (Raji).

B1: Lym-1 (antibody, V domains shown)
VH: QLKESGPGLVAPSQSLSITCTISGFSLTSYGVHWVRQPPGKGLEWLVVIWSDGSTTYNSALKSRLSISKDNSKSQVFLKMNSLQTDDTAIYYCASHYGSTLAFASWGHGTLVTVSA
VL: DIQMTQSPASLSASVGETVTIICRASVNIYSYLAWYQQKQGKSPQLLVYNAKILAEGVPSRFSGSGSGTQFSLKINSLQPEDFGSYYCQHHYGTFTFGSGTKLEIK
Molecule B1 returned a Ka of 4.02e+08 M⁻¹.
